Tested on: Abp1 PPIs
Assay: DHFR-PCA of Abp1 SH3-swapped baits (Fig. 2B-D, S2C, S2F);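 as to Protein-protein interaction distance between Abp1 SH3-swapped baits, to ABP1: Euclidean distance between DHFR-PCA score profiles of the baits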;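 as to Protein-protein interaction distance between Abp1 SH3-swapped baits, to BEM1-2: Euclidean distance between DHFR-PCA score profiles of the baits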;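 as to Protein-protein interaction distance between Abp1 SH3-swapped baits, to BOI1: Euclidean distance between DHFR-PCA score profiles of the baits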;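 as to Protein-protein interaction distance between Abp1 SH3-swapped baits, to BZZ1-1: Euclidean distance between DHFR-PCA score profiles of the baits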
Assay type: cell-based, Saccharomyces cerevisiae
Outline: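 Yeast DHFR-PCA in which Abp1 baits, carrying their SH3 replaced by CRISPR–Cas9 with one of 27 yeast SH3s or human CTTN, HCLS1 or DBNL SH3s, were mated against 575 SH3-associated DHFR F[3] preys plus 40 negative controls. Four tests were run per PPI. Diploids were selected twice (48 h, 30 °C), then grown 4 days on PCA selection media.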

[1] = number of PPIs, difference, Abp1 SH3-swapped with the listed SH3, Fig2D,S2F

B1: PEX13 (protein, UniProt P80667 1-386, looked up)
Peroxisomal membrane protein …: MSSTAVPRPKPWETSASLEEPQRNAQSLSAMMTSNQQDSRPTEESNNSNSASESAPEVLPRPAALNSSGTYGESNTIPGIYGNSNYGIPYDNNPYSMNSIYGNSIGRYGYGGSYYGNNYGSFYGGGYGAGAGYGMNNGSGLGESTKATFQLIESLIGAVTGFAQMLESTYMATHNSFFTMISVAEQFGNLKEMLGSFFGIFAIMKFLKKILYRATKGRLGIPPKNFAESEGSKNKLIEDFQKFNDSGTINSNEKATRRKISWKPLLFFLMAVFGFPYLLNKFITKLQTSGTIRASQGNGSEPIDPSKLEFARALYDFVPENPEMEVALKKGDLMAILSKKDPLGRDSDWWKVRTKNGNIGYIPYNYIEIIKRRKKIEHVDDETRTH
Abp1 bait with swapped SH3, distance to bait with ABP1 SH3, sheet Fig2C
  Protein-protein interaction distance between Abp1 SH3-swapped baits, to ABP1: 10.96
Distance to Abp1 bait with BBC1 SH3, sheet Fig2C
  Protein-protein interaction distance between Abp1 SH3-swapped baits, to BBC1: 10.86
Distance to Abp1 bait with BEM1-1 SH3, sheet Fig2C
  Protein-protein interaction distance between Abp1 SH3-swapped baits, to BEM1-1: 16.62
Distance to Abp1 bait with BEM1-2 SH3, sheet Fig2C
  Protein-protein interaction distance between Abp1 SH3-swapped baits, to BEM1-2: 35.19
Distance to Abp1 bait with BOI1 SH3, sheet Fig2C
  Protein-protein interaction distance between Abp1 SH3-swapped baits, to BOI1: 13.22
Distance to Abp1 bait with BOI2 SH3, sheet Fig2C
  Protein-protein interaction distance between Abp1 SH3-swapped baits, to BOI2: 16.99
Distance to Abp1 bait with BUD14 SH3, sheet Fig2C
  Protein-protein interaction distance between Abp1 SH3-swapped baits, to BUD14: 19.91
Distance to Abp1 bait with BZZ1-1 SH3, sheet Fig2C
  Protein-protein interaction distance between Abp1 SH3-swapped baits, to BZZ1-1: 7.297
Distance to Abp1 bait with BZZ1-2 SH3, sheet Fig2C
  Protein-protein interaction distance between Abp1 SH3-swapped baits, to BZZ1-2: 13.09
Distance to Abp1 bait with CDC25 SH3, sheet Fig2C
  Protein-protein interaction distance between Abp1 SH3-swapped baits, to CDC25: 29.16
Distance to Abp1 bait with CTTN SH3, sheet Fig2C
  Protein-protein interaction distance between Abp1 SH3-swapped baits, to CTTN: 14.16
Distance to Abp1 bait with CYK3 SH3, sheet Fig2C
  Protein-protein interaction distance between Abp1 SH3-swapped baits, to CYK3: 29.86
Distance to Abp1 bait with DBNL SH3, sheet Fig2C
  Protein-protein interaction distance between Abp1 SH3-swapped baits, to DBNL: 7.699
Distance to Abp1 bait with FUS1 SH3, sheet Fig2C
  Protein-protein interaction distance between Abp1 SH3-swapped baits, to FUS1: 21.37
Distance to Abp1 bait with HCLS1 SH3, sheet Fig2C
  Protein-protein interaction distance between Abp1 SH3-swapped baits, to HCLS1: 8.5
Distance to Abp1 bait with HOF1 SH3, sheet Fig2C
  Protein-protein interaction distance between Abp1 SH3-swapped baits, to HOF1: 33.79
Distance to Abp1 bait with HSE1 SH3, sheet Fig2C
  Protein-protein interaction distance between Abp1 SH3-swapped baits, to HSE1: 8.715
Distance to Abp1 bait with LSB1 SH3, sheet Fig2C
  Protein-protein interaction distance between Abp1 SH3-swapped baits, to LSB1: 6.728
Distance to Abp1 bait with LSB3 SH3, sheet Fig2C
  Protein-protein interaction distance between Abp1 SH3-swapped baits, to LSB3: 7.361
Distance to Abp1 bait with MYO3 SH3, sheet Fig2C
  Protein-protein interaction distance between Abp1 SH3-swapped baits, to MYO3: 8.874
Distance to Abp1 bait with MYO5 SH3, sheet Fig2C
  Protein-protein interaction distance between Abp1 SH3-swapped baits, to MYO5: 7.969
Distance to Abp1 bait with NBP2 SH3, sheet Fig2C
  Protein-protein interaction distance between Abp1 SH3-swapped baits, to NBP2: 19.13
Distance to Abp1 bait with PEX13 SH3, sheet Fig2C
  Protein-protein interaction distance between Abp1 SH3-swapped baits, to PEX13: 0.00
Distance to Abp1 bait with PIN3 SH3, sheet Fig2C
  Protein-protein interaction distance between Abp1 SH3-swapped baits, to PIN3: 5.433
Distance to Abp1 bait with RVS167 SH3, sheet Fig2C
  Protein-protein interaction distance between Abp1 SH3-swapped baits, to RVS167: 4.587
Distance to Abp1 bait with SDC25 SH3, sheet Fig2C
  Protein-protein interaction distance between Abp1 SH3-swapped baits, to SDC25: 35.86
Distance to Abp1 bait with SHO1 SH3, sheet Fig2C
  Protein-protein interaction distance between Abp1 SH3-swapped baits, to SHO1: 8.672
Distance to Abp1 bait with SLA1-1 SH3, sheet Fig2C
  Protein-protein interaction distance between Abp1 SH3-swapped baits, to SLA1-1: 31.78
Distance to Abp1 bait with SLA1-2 SH3, sheet Fig2C
  Protein-protein interaction distance between Abp1 SH3-swapped baits, to SLA1-2: 21.86
Distance to Abp1 bait with SLA1-3 SH3, sheet Fig2C
  Protein-protein interaction distance between Abp1 SH3-swapped baits, to SLA1-3: 6.985
Distance to Abp1 bait with YSC84 SH3, sheet Fig2C
  Protein-protein interaction distance between Abp1 SH3-swapped baits, to YSC84: 7.848
[1]
  PPIs gained by Abp1 - SH3-dependent PPIs gained by Abp1: 23
  SH3-dependent PPIs - SH3-dependent PPIs gained by Abp1: 0
Number of PPIs, Abp1 SH3-swapped with the listed SH3, DHFR-PCA, Fig2D,S2F
  SH3-dependent PPIs gained by Abp1: 1
